The text below walks through data of patent US8541552.

The experiment deals with T1, LTα1β2 (human, UniProt P01374).
T1 chain 1: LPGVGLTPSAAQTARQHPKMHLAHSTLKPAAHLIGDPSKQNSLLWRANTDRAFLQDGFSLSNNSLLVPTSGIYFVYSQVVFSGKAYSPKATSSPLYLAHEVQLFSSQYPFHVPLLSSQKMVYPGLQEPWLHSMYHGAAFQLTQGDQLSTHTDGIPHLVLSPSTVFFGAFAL
T1 chain 2: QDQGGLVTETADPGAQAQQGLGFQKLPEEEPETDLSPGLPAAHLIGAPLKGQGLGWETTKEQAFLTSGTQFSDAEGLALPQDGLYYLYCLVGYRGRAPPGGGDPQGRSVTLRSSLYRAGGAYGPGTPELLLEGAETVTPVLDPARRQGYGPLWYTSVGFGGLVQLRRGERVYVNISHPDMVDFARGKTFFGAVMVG
The experiment in a line: ELISA. Background: In an ELISA, binding on a coated surface is turned into a signal by an enzyme label.

B1: TNFRII.Fc (protein)
chain: LPAQVAFTPYAPEPGSTCRLREYYDQTAQMCCSKCSPGQHAKVFCTKTSDTVCDSCEDSTYTQLWNWVPECLSCGSRCSSDQVETQACTREQNRICTCRPGWYCALSKQEGCRLCAPLRKCRPGFGVARPGTETSDVVCKPCAPGTFSNTTSSTDICRPHQICNVVAIPGNASMDAVCTSTSPTRSMAPGAVHLPQPVSTRSQHTQPTPEPSTAPSTSFLLPMGPSPPAEGSTGD
For the molecule B1, the binding result was “no binding”.
